Source: publication PMC12025923 (Cells, 2025)
Primed or numbered codes have the meaning given here. Where no end group is shown, it is not given here. [ ]: non-standard residue; d: D form. FITC′ = fluorescein isothiocyanate label at the N-terminus; pS = N[C@@H](COP(=O)(O)O)C(=O)O

T1: 14-3-3γ-R57G-nLuc (human, UniProt P61981 2-247, R57G)
T1 construct: 14-3-3γ (YWHAG), human, pathogenic patient variant R57G, site-directed mutant of the 14-3-3γ-nLuc plasmid; limits as m8; As m8 with R57G; source: E. coli Rosetta(DE3)pLysS, purified (Ni-NTA); not shown: nLuc (nanoluciferase), C-terminal, kept
T1 sequence (looked up): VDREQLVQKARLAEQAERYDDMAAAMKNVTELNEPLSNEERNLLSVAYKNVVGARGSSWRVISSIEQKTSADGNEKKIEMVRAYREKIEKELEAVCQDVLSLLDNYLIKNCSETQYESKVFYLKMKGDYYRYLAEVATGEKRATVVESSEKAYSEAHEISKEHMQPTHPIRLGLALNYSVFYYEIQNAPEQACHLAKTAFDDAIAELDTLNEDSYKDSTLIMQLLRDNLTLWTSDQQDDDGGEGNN

T2: wild-type 14-3-3γ-nLuc (His6-14-3-3γ-nLuc) (human, UniProt P61981 2-247)
T2 construct: Size ~47.5 kDa as printed; The Nluc forward primer encodes a short linker (GGGGTRS, read from the primer) between 14-3-3γ and nLuc; also called wt 14-3-3γ-nLuc; 14-3-3γ-nLuc wt; source: E. coli Rosetta(DE3)pLysS, purified (Ni-NTA); not shown: nLuc (nanoluciferase), C-terminal, kept
T2 sequence (looked up): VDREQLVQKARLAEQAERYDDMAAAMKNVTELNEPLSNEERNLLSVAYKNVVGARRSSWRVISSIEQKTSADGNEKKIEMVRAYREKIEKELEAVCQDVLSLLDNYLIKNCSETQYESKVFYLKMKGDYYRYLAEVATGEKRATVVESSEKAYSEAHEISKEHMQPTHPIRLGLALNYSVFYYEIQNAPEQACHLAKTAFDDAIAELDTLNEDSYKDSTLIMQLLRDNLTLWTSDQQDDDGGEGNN

T3: 14-3-3γ-R57C-nLuc (human, UniProt P61981 2-247, R57C)
T3 construct: 14-3-3γ (YWHAG), human, pathogenic patient variant R57C, site-directed mutant of the 14-3-3γ-nLuc plasmid; limits as m8; As m8 with R57C; source: E. coli Rosetta(DE3)pLysS, purified (Ni-NTA); not shown: nLuc (nanoluciferase), C-terminal, kept
T3 sequence (looked up): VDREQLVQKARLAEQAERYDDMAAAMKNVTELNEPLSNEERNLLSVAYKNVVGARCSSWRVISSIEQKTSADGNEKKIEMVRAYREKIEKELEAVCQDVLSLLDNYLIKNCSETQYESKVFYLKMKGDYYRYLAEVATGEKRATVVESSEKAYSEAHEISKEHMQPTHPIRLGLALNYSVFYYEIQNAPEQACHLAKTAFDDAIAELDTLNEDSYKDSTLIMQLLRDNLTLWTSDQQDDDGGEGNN

T4: wild-type 14-3-3γ-nLuc (His6-14-3-3γ-nLuc) (human, UniProt P61981 2-247)
T4 chain: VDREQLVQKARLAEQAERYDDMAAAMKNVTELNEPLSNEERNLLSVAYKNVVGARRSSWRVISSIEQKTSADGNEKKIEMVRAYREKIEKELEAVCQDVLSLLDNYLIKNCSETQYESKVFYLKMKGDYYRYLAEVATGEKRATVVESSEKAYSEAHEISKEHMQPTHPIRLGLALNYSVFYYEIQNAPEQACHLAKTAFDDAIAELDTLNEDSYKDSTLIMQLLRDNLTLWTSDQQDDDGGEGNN

T5: 14-3-3γ-R57C-nLuc (human, UniProt P61981 2-247, R57C)
T5 sequence: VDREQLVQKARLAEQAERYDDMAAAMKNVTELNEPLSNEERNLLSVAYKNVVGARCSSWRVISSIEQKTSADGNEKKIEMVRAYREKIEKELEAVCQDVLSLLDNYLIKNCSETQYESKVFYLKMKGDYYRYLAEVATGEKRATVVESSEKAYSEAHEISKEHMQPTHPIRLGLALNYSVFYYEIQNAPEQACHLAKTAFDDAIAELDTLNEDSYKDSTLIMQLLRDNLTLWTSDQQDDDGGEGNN


Assays:
[1] = target: T1, 14-3-3γ-R57G-nLuc; test: FRET or BRET; in vitro BRET: 1 nM recombinant nLuc or 14-3-3γ-nLuc with increasing FITC-phosphopeptide in 20 mM Tris-HCl, 150 mM NaCl, 1 mg/mL BSA, 0.1% Tween 20; 250 nM furimazine; net BRET after subtraction of nLuc background; Kd from y = Bmax*x/(Kd + x); conditions: both partners purified
[2] = target: T2, wild-type 14-3-3γ-nLuc …; test: as above; conditions: both partners purified
[3] = target: T3, 14-3-3γ-R57C-nLuc; test: as above; conditions: both partners purified
[4] = target: T4, wild-type 14-3-3γ-nLuc …; test: degarelix 1 uM
[5] = target: T4, wild-type 14-3-3γ-nLuc …; test: nafamostat 25 uM
[6] = target: T5, 14-3-3γ-R57C-nLuc; test: DMSO; apparent, Bmax set to wild-type
[7] = target: T5, 14-3-3γ-R57C-nLuc; test: degarelix 1 uM; apparent, Bmax set to wild-type
[8] = target: T5, 14-3-3γ-R57C-nLuc; test: nafamostat 25 uM; apparent, Bmax set to wild-type
[9] = target: T2, wild-type 14-3-3γ-nLuc …; test: FRET or BRET; in vitro BRET competition: wt 14-3-3γ-nLuc and FITC-phosphopeptide with increasing doses of R18 peptide (Figure S2D); conditions: both partners purified

percent of the phosphopeptide binding reached at the highest peptide concentration [1]	Kd [2]	percent of the phosphopeptide binding reached at the highest peptide concentration [3]	Kd [4]	Kd [5]	Kd [6]	Kd [7]	Kd [8]	binding result [9]	Binder
~30%	47.5 nM	~30%	–	–	–	–	–	–	{FITC′}-FPQSA[pS]LPPYFS (SLP76 (Lymphocyte cytosolic protein 2/LCP2), human; source: synthetic peptide (AbClonal)) [FITC-pSLP76]
~30%	0.74 nM	~30%	0.89 nM	0.8 nM	431 nM	25.2 nM	44.1 nM	–	{FITC′}-QRHSN[pS]LGPIFDGSGGGSGIKARAS[pS]SPVILVGTHLD (leucine-rich repeat kinase 2 (LRRK2), human; also called FITC-LRRK2; source: synthetic peptide (AbClonal)) [FITC-ppLRRK2]
–	84.3 nM	–	36.2 nM	75 nM	–	22200 nM	5280 nM	–	{FITC′}-MPTPDATTPQAKGFRRAV[pS]ELDAKQAEAIMSPRFIGRRQSLIE (also called phosphopeptide derived from tyrosine hydroxylase (TH); source: synthetic peptide (AbClonal)) [FITC-pTH]
–	–	–	–	–	–	–	–	binds	PHCVPRDLSWLDLEANMCLP (Not labelled with FITC (only the phosphopeptides were); source: synthetic peptide (AbClonal)) [R18 peptide]
